Results: patent US7893197B2, “Relaxin-3 chimeric polypeptides and their preparation and use” (Janssen Pharmaceutica N.V., priority 2005, dated 2011)

Molecular target: T1, LGR7 (Homo sapiens, UniProt Q9HBX9)
T1 construct: Human LGR7 cDNA containing the complete coding region was PCR amplified; expressed in transfected cells
T1 sequence (Q9HBX9 1-757): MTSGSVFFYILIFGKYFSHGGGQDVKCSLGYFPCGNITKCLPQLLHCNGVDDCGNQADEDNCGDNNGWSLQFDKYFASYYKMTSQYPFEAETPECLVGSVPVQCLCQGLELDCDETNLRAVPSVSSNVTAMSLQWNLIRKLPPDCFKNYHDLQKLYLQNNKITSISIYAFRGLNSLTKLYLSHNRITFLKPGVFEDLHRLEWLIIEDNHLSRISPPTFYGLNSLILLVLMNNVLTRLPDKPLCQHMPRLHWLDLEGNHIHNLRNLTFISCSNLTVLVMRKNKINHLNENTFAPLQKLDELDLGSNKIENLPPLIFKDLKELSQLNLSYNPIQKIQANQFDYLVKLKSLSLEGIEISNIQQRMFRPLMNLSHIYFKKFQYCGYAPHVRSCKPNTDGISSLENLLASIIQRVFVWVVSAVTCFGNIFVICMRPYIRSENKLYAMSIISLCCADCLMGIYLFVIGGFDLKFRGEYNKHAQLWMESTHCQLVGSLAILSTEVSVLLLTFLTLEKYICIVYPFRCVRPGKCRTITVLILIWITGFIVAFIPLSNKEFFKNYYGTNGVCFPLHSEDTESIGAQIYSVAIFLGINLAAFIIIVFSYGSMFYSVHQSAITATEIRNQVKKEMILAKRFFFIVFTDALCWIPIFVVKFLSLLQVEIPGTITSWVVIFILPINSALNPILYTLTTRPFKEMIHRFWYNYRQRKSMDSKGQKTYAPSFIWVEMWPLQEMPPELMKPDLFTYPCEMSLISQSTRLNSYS
Assay: Stimulation of β-galactosidase expression in SK-N-MC/β-gal cells
Assay type: cell-based
Method: FIGS. 1A-1D show the activation of GPCR135 and GPCR142 by relaxin-3 B-chain, but not of LGR7 or LGR8. In FIG. 1A, SK-N-MC/β-gal cells expressing human GPCR135 were stimulated with relaxin-3, relaxin-3 B-chain, porcine relaxin, or INSL3 at various concentrations to inhibit the forskolin stimulated β-galactosidase expression. Forskolin was added to cells at a final concentration of 5 μM to stimulate the β-galactosidase expression. FIG. 1B depicts results for SK-N-MC/β-gal cells expressing human GPCR142 stimulated as in FIG. 1A. In FIG. 1C, SK-N-MC/β-gal cells expressing human LGR7 were stimulated with relaxin-3, relaxin-3 B-chain, porcine relaxin, and INSL3 at various concentrations to induce the β-galactosidase expression. The intracellular β-galactosidase activities were measured by a colorimetric assay using CRGP as the substrate and reading the absorbance at a wavelength of 570 nm. For FIG. 1D, SK-N-MC/β-gal cells expressing human LGR8 were stimulated as in FIG. 1C.
FIGS. 4A-4D illustrate the evaluation of the agonist activity of relaxin-3 chimeric polypeptides in biofunctional assays. Different chimeric polypeptides at various concentrations were added to SK-N-MC/β-gal cells expressing human GPCR135 (FIG. 4A) or GPCR142 (FIG. 4B) to inhibit forskolin stimulated β-galactosidase expression. Human relaxin-3 was used as the positive control. In parallel, chimeric polypeptides at various concentrations were added to SK-N-MC/β-gal cells expressing human LGR7 (FIG. 4C) and LGR8 (FIG. 4D) to stimulate β-galactosidase expression. Relaxin-3 and INSL3 were used as positive controls for LGR7 and LGR8, respectively. Intracellular β-galactosidase activity was measured by a colorimetric assay using CRGP as the substrate and reading the absorbance at wavelength of 570 nm. Data represent mean±SEM (n=3).
It has been shown that synthetic human relaxin-3 B-chain alone, but not A-chain, is an agonist for both GPCR135 and GPCR142 (Liu et al., 2003, Journal of Biological Chemistry, 278:50754-50764 and Liu et al., 2003, Journal of Biological Chemistry, 278:50765-50770). Those studies were repeated herein in SK-N-MC/β-gal cells, which harbor a β-galactosidase gene under the control of a cAMP responsive element (CRE) (Liu et al., 2001, Molecular Pharmacology, 59:420-426). In such SK-N-MC/β-gal cells, an increase in intracellular cAMP concentration leads to increased β-galactosidase gene expression, the activity of which is measured using Chlorophenol Red-β-D-Galactopyranoside (CPRG) as the substrate.
The inventive chimeric polypeptides were each independently tested for their ability to activate either GPCR135, GPCR142, LGR7, or LGR8, respectively, in separate pools of SK-N-MC/β-gal cells (see supra), each pool stably expressing one of the respective receptors, as indicated (FIG. 4).
Cells were seeded in 96-well tissue culture plate at a density of 30,000 cells/well in MEM plus 10% fetal serum, sodium pyruvate, penicillin, streptomycin, and G418 (400 mg/L). For cells expressing GPCR135 or GPCR142, forskolin was added to cells at a final concentration of 5 μM to stimulate intracellular cAMP accumulation. Different concentrations of each of the inventive polypeptides were then added to the cells to inhibit the forskolin induced cAMP accumulation. For cells expressing LGR7 or LGR8, intracellular cAMP was stimulated with each of the inventive chimeric polypeptides at various concentrations.
For all cells, after adding the chimeric polypeptides, cells were incubated for 6 additional hours in 37° C. incubator. The media was then aspirated and the β-galactosidase activities measured as previously described (Liu et al., 2001, Molecular Pharmacology, 59:420-426). The results were analyzed by Prism 3.0 software. […]

With “R3/I4: chimeric polypeptide: human relaxin-3 B-chain and INSL4 A-chain; mature polypeptide SEQ ID NO:22 (RAAPYGVRLCGREFIRAVIFTCGGSRWFDPFCCEVICDDGTSVKLC; Human Relaxin-3/Insulin-like 4 chimeric mature polypeptide)” the “activation of LGR7, in words” value was “no activity”.
